According to patent US5652340:

Molecular target: T1, SATB1 80 kDa deltaSATB1 (bacterially produced) (Homo sapiens) (UniProt Q01826)
T1 sequence: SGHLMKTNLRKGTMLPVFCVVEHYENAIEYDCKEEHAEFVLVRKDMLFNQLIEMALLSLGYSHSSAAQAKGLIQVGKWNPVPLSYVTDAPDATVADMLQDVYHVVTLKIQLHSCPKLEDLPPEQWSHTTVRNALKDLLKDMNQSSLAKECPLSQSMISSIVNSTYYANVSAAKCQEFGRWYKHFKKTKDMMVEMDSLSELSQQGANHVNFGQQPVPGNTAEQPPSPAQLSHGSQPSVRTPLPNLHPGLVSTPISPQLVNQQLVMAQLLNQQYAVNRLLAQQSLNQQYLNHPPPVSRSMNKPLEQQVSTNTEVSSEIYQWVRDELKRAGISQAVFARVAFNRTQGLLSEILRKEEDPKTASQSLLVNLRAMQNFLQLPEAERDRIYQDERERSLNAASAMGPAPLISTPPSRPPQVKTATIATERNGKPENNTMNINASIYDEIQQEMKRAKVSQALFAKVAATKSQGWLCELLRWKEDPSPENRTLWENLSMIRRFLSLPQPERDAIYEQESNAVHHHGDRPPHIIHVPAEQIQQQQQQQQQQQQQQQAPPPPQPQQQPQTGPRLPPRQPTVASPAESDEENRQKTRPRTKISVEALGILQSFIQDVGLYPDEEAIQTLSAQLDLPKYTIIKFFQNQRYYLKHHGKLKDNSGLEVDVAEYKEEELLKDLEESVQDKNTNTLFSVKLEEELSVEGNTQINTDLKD
Assay: EMSA

“TCTTTAATTTCTAATATATTTAGAATTC (double strand) [wild-type (25)2]” was tested, and the koff was 0.0167 s⁻¹.
